Data from PMC10018365, “Cryo-EM structure of the fully assembled Elongator complex” (Nucleic Acids Research, 2023).

B2: Saccharomyces cerevisiae Elp3 (enzyme, UniProt Q02908 1-557, looked up)
chain: MARHGKGPKTNKKKLAPEKERFIQCCADITLELTDSLTSGTTREINLNGLITKYSKKYKLKQQPRLTDIINSIPDQYKKYLLPKLKAKPVRTASGIAVVAVMCKPHRCPHIAYTGNICVYCPGGPDSDFEYSTQSYTGYEPTSMRAIRARYDPYEQARGRVEQLKQLGHSIDKVEYVLMGGTFMSLPKEYREDFIVKLHNALSGFNGNDIDEAILYSQQSLTKCVGITIETRPDYCTQTHLDDMLKYGCTRLEIGVQSLYEDVARDTNRGHTVRSVCETFAVSKDAGYKVVSHMMPDLPNVGMERDIEQFKEYFENPDFRTDGLKIYPTLVIRGTGLYELWKTGRYKSYSANALVDLVARILALVPPWTRIYRVQRDIPMPLVTSGVDNGNLRELALARMKDLGTTCRDVRTREVGIQEVHHKVQPDQVELIRRDYYANGGWETFLSYEDPKKDILIGLLRLRKASKKYTYRKEFTSQRTSIVRELHVYGSVVPLHSRDPRKFQHQGFGTLLMEEAERIAKEEHGSEKISVISGVGVRNYYGKLGYELDGPYMSKRI
notes: Elp3, S. cerevisiae, full-length ORF; also called ScElp3; source: S. cerevisiae DS1-2b, overexpressed, purified within ScElongator; not shown: Twin-Strep-tag, C-terminal, kept

Tests used:
Settings in all cases: both partners purified
[1] = target: T1, Saccharomyces cerevisiae Elp4 (Saccharomyces cerevisiae, UniProt Q02884 1-456); test: cryo-EM structure; free full-length ScElp456 rings found in one data set, 3.7 Å
T1 construct: Elp4, S. cerevisiae, full-length ORF; also called ScElp4; source: S. cerevisiae DS1-2b, overexpressed, purified within ScElongator
T1 sequence (looked up): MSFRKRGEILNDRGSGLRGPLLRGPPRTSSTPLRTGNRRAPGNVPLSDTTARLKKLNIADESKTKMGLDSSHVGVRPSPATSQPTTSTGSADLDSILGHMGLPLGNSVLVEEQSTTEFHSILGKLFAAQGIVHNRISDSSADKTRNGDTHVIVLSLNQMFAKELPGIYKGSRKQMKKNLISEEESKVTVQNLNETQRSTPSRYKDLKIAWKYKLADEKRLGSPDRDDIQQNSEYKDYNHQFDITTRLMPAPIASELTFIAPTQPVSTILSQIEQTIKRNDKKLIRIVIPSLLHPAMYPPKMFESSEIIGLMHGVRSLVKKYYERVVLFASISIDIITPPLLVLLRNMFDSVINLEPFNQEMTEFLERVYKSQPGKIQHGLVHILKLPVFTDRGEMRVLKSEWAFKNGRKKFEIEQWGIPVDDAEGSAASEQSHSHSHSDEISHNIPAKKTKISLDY

[2] = target: T2, Saccharomyces cerevisiae Elp5 (Saccharomyces cerevisiae, UniProt P38874 1-309); test: as above
T2 construct: Elp5, S. cerevisiae, full-length ORF; also called ScElp5; source: S. cerevisiae DS1-2b, overexpressed, purified within ScElongator
T2 sequence (looked up): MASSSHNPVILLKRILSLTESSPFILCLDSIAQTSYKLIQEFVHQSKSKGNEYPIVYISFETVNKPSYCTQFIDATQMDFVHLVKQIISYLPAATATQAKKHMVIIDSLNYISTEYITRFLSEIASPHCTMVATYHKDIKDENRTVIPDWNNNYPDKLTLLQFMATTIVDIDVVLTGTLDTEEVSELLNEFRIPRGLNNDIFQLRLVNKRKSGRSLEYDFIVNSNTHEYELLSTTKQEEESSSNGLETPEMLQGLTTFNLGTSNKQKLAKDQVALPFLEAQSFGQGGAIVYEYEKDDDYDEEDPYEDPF

[3] = target: B2; test: cryo-EM structure; ScElongator purified from overexpressing yeast, native sample (4.35 Å) and BS3-stabilised sample (6.6 Å; two-lobed map 17.2 Å); sample buffer 20 mM HEPES pH 7.5, 100 mM NaCl, 3 mM DTT
[4] = target: T3, Saccharomyces cerevisiae Elp1 (Saccharomyces cerevisiae, UniProt Q06706 1-1349); test: cryo-EM structure; ScElp123 with yeast tRNA Ala UGC (3-5 molar excess, 15 min on ice), 3.96 Å
T3 construct: Elp1, S. cerevisiae, full-length ORF; also called ScElp1; source: S. cerevisiae DS1-2b, overexpressed, purified within ScElongator
T3 sequence (looked up): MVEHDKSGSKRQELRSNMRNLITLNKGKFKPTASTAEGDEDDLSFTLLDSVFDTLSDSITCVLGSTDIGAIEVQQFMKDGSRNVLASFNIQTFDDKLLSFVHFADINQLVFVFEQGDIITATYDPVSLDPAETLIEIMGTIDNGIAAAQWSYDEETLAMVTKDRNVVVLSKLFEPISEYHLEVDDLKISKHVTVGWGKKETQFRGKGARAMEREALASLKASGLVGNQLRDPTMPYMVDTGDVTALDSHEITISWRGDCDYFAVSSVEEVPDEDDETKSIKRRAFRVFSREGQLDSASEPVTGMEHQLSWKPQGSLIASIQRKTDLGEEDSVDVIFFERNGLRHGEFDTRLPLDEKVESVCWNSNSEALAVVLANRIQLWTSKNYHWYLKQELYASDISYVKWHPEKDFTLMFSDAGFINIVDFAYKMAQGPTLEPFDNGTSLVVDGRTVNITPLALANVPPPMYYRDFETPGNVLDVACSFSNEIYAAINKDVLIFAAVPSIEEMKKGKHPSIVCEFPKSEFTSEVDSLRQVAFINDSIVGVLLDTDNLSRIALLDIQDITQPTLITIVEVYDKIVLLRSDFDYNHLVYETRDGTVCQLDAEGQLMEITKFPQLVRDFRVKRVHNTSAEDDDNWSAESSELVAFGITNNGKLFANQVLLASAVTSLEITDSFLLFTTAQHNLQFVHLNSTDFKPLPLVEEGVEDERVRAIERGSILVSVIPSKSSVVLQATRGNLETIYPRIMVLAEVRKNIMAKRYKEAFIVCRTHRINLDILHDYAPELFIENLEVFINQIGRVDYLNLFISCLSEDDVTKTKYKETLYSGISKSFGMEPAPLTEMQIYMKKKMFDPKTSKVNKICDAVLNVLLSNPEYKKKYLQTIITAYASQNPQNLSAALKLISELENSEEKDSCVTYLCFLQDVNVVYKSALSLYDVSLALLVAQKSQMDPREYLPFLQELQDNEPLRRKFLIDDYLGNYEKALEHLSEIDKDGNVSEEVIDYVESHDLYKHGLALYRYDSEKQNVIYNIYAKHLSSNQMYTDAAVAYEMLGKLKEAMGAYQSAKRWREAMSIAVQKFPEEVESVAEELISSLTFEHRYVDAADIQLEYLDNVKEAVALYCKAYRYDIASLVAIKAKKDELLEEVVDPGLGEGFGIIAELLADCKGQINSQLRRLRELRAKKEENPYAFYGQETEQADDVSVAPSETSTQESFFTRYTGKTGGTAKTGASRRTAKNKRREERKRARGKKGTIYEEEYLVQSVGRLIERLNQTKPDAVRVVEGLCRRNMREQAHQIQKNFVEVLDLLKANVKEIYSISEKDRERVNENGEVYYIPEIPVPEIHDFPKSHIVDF

[5] = target: T4, Saccharomyces cerevisiae Elp2 (Saccharomyces cerevisiae, UniProt P42935 1-788); test: as above
T4 construct: Elp2, S. cerevisiae, full-length ORF; also called ScElp2; source: S. cerevisiae DS1-2b, overexpressed, purified within ScElongator
T4 sequence (looked up): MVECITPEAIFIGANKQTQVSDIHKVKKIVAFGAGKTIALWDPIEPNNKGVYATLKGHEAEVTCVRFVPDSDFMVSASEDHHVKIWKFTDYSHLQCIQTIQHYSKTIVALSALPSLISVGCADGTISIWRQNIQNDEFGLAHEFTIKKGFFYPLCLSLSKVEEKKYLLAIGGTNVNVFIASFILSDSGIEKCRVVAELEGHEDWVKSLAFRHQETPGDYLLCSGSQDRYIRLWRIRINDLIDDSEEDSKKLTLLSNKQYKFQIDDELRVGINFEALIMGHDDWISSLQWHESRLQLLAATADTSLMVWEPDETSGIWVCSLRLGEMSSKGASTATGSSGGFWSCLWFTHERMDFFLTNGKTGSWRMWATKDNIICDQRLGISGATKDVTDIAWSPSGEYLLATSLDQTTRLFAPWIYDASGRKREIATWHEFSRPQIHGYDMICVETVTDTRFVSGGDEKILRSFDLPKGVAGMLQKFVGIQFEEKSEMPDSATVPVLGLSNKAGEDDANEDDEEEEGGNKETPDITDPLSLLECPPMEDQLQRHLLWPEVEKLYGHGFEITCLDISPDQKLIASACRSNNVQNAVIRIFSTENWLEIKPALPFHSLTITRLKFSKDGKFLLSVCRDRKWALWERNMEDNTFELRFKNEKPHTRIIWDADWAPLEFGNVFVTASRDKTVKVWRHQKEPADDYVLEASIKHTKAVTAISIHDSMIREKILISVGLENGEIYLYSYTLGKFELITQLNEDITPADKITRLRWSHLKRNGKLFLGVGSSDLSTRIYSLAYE

[6] = target: T5, Mus musculus Elp123 subcomplex (Mus musculus, UniProt Q7TT37 1-1333; Q91WG4 1-831; Q9CZX0 1-547); test: cryo-EM structure; MmElongator reconstituted from purified MmElp123 and MmElp456 and re-purified by gel filtration, 5.9 Å
T5 construct: Elp1, mouse, ORF; Elp2, mouse, ORF; Elp3, mouse, ORF; Gel filtration at about 610 kDa; also called MmElp123; mouse Elp123; source: Super Sf9-1 insect cells (baculovirus, biGBac), purified (StrepTrap, heparin, Superose 6); not shown: Twin-Strep-tag, C-terminal, kept; copies: 2 + 2 + 2
T5 sequence (Q7TT37 whole entry, chain 1 of 3): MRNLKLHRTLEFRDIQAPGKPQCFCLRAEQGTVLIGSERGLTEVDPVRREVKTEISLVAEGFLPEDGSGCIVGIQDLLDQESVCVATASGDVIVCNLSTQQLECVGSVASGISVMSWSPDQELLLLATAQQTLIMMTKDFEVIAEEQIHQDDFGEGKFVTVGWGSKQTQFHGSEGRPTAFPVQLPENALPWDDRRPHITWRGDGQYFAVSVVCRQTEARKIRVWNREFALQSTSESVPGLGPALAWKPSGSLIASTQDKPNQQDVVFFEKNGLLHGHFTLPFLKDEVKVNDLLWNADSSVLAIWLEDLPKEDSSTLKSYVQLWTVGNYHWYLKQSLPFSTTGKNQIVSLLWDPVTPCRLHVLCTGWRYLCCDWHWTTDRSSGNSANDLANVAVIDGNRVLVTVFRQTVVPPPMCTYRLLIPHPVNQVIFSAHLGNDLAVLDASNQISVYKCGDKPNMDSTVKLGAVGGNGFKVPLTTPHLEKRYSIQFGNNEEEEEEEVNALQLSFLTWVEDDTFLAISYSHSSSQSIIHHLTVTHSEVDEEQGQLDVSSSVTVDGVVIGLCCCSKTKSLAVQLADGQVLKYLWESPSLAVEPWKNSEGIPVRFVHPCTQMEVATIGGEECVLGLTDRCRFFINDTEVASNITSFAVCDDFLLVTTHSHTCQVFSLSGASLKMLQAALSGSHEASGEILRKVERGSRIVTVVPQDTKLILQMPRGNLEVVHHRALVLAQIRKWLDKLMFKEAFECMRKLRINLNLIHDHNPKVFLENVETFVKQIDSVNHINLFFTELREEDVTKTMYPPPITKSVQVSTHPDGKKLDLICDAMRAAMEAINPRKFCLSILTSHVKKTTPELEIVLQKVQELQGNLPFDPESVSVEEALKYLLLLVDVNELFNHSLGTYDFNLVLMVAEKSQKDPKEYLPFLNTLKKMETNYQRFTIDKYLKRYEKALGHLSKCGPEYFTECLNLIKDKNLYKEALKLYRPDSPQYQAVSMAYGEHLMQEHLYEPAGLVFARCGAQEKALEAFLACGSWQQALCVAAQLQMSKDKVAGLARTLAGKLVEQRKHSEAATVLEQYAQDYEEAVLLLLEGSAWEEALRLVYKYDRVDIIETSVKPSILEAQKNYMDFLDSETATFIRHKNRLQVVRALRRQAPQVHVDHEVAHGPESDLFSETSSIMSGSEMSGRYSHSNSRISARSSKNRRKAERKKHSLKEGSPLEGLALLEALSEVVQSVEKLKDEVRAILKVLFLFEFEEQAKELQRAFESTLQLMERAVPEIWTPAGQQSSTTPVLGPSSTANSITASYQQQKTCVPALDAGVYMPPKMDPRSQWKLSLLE
T5 sequence (Q91WG4 whole entry, chain 2 of 3): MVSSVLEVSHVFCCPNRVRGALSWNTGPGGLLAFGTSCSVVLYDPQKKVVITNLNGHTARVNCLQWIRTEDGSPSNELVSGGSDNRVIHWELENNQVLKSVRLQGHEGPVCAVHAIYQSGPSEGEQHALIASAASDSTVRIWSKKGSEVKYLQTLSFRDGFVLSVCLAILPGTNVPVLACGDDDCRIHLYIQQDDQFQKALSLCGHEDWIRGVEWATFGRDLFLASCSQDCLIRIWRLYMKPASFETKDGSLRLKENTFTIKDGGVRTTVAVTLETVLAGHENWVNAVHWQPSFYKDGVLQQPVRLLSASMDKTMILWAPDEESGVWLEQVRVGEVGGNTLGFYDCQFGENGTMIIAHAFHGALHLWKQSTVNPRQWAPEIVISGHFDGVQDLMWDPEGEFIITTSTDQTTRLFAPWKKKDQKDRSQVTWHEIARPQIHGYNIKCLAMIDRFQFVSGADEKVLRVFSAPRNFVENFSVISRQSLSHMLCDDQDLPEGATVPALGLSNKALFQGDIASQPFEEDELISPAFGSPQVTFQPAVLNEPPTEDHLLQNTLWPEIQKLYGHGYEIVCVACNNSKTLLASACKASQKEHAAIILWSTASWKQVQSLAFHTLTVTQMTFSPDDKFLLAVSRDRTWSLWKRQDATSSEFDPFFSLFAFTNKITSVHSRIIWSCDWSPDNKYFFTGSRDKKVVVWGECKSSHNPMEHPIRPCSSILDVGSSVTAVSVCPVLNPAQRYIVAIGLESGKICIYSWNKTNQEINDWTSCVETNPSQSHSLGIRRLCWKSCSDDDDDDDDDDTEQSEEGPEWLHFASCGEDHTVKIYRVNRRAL
T5 sequence (Q9CZX0 whole entry, chain 3 of 3): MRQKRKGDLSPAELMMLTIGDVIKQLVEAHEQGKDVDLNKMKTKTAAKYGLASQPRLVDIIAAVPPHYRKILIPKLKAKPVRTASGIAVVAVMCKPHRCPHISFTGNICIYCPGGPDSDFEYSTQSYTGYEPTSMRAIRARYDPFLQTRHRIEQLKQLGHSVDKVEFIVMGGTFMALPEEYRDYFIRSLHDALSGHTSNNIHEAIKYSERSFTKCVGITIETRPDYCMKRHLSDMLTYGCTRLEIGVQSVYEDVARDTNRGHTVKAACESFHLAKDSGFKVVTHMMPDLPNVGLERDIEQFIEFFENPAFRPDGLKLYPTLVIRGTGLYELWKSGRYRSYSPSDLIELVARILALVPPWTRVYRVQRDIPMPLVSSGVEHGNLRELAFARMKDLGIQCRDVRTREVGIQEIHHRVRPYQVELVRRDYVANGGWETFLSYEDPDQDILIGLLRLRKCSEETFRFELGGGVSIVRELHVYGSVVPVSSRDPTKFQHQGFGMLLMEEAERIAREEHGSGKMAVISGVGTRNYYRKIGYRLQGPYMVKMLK

B1: Saccharomyces cerevisiae Elp6 (natural protein, UniProt Q04868 1-273, looked up)
chain: MGSVQRQDLVLFSDQSVLPAHFFQDSNSHNLFFITHQSCTQPLWMINALVETHVLGSPSSLNESSSSMLPSSTRSHAVLASFIHEQNYFTNSLNKLKIPSNNYNVLDFLSDFIVNNIHNKPRDKILSDVLAKFSAAIQNNPTDTIVIIEQPELLLSLVSGLTCSELNNKFITPLLRQCKVLIIVSNSDIFNIDEYDASVHSSNLQNFYKSSFIKSMINLNLNPLKTGFAKDVTGSLHVCRGGAPIATSNTSLHVVENEYLYLNEKESTKLFYR
notes: Elp6, S. cerevisiae, full-length ORF; also called ScElp6; source: S. cerevisiae DS1-2b, overexpressed, purified within ScElongator; not shown: protein A (Staphylococcus aureus), C-terminal, cleaved
[1]
  binding result: binds
[2]
  binding result: binds
[3]
  binding result: binds

## B2
[4]
  binding result: binds
[5]
  binding result: binds

B3: Mus musculus Elp456 subcomplex (complex)
chain 1: MAAADTCGAGTLSSRSVASEAGQGGTSSFQRKGKASGGPGGGPRLLSIAGTRPSVRNGQLLVSTGLPALDQLLGGGLAVGTLLLIEEDKYNIYSPLLFKYFMAEGIINGHTLLVASAKENPAKILQELPAPLLDDNSKKELEDVHSAKTPEPNVNMKIAWRYQLQPKMEVGPVSSSRFGHYYDLSKRIPWELLQSSKWHGFFLPEHISPDLKGESCFLSCGYMRLLEFIQKSVYAEGFDGANPQKKQKNILRIGIQNLGSPLWGDDICCKENCDNNHRLTKFLYILRGLLRSSLSACIITMPAHLVQNKSITTRVRNLSDTVVGLESFIGSERETNPLYKDYHGLIHIRKIPRLNNLTCDESDVKDLAFKLKRKLFTIERLHLPPDLSDTVGRSSKQDLAASTARLGAGCSSMAEGKKHLDF
chain 2: MLDSLLAIGGLVLLRDSVEWEGRSLLKALIKKSALRGEQVHVLGCEVSEEEFREGFDSDVNSRLVYHDLFRDPLNWSKPGEAVPEGPLKALRSMCKRTDHGSVTIALDSLSWLLCHIPCVTLCQALHALSQQNGDPGDNSLVEQVRVLGLLHEELHGPGSMGALNTLAHTEVTLSGKVDQTSASILCRRPQQRATYQTWWFSVLPDFSLTLHEGLPLRSELHPDHHTTQVDPTAHLTFNLHLSKKEREARDSLTLPFQFSSEKQKALLHPVPSRTTGHIFYEPDAFDDVDPEDPDDDLDI
chain 3: MFPELNNLLSTTPDKTEQGTLTLLCDAKTDGSFLVHHFLSFYLKANCKVCFVALVQSFSHYNIVGQKLGVSLTAARDRGQLVFLEGLKSSVEVLFHSQDEPHPLQFLREAGTGNLQSLYTFIQDTLKPADSEESPWKYPVLLVDNLSVLLSLGVGAVAVLDFMQYCRATVCCELKGNVVALVHDTEGATDEGNDTLLNGLSHQSHLILRAEGLATGFCKDVHGQLSILWRRPSRSTAQRAQSLTYQYKIQDKNVSFFAKGMSPAVL
notes: Elp4, mouse, ORF; Elp5, mouse, ORF; Elp6, mouse, ORF; Gel filtration at about 220 kDa; also called MmElp456; mouse Elp456; source: Hi-5 insect cells (baculovirus, biGBac), purified (IgG Sepharose with TEV elution, Superose 6); not shown: FLAG, C-terminal, kept; Protein A, C-terminal, cleaved; copies: 2 + 2 + 2
[6]
  stoichiometry N: 1
